Assays:
Test in all cases: proteo-liposome transport assay, LC-MS/MS
Type in all cases: biochemical, Arabidopsis thaliana
Conditions in all cases: apparent Km, proteo-liposomes pre-loaded with 10 mM GMP, 0.5–400 μM substrate, 25 °C, pH 7.5, mean (s.e.m.) n=4
[1] = substrate: C[C@@H]1O[C@H](OP(=O)(O)OP(=O)(O)OC[C@H]2O[C@@H](n3cnc4c(=O)[nH]c(N)nc43)[C@H](O)[C@@H]2O)[C@@H](O)[C@H](O)[C@@H]1O
Source text: proteo-liposome transport assay, LC-MS/MS on GFT1

[2] = substrate: C[C@@H]1O[C@H](OP(=O)(O)OP(=O)(O)OC[C@H]2O[C@@H](n3cnc4c(=O)[nH]c(N)nc43)[C@H](O)[C@@H]2O)[C@@H](O)[C@H](O)[C@@H]1O; remark: listed apart in the source
Source text: (§1) proteo-liposome transport assay, LC-MS/MS on GONST1

[3] = substrate: Nc1nc2c(ncn2[C@@H]2O[C@H](COP(=O)(O)OP(=O)(O)O[C@H]3O[C@H](CO)[C@@H](O)[C@H](O)[C@@H]3O)[C@@H](O)[C@H]2O)c(=O)[nH]1
Source text: as §1

Protein	Km [1]	Vmax [1]	kcat [1]	Km [2]	Vmax [2]	kcat [2]	Km [3]	Vmax [3]	kcat [3]
GFT1 (Arabidopsis thaliana) (protein, yeast microsomal protein reconstituted into liposomes) MSSSRFDSNKQLTTSSLVIGYALCSSLLAVINKLAITYFNYPGLLTALQYLTCTVAVYLLGKSGLINHDPFTWDTAKKFLPAAIVFYLAIFTNTNLLRHANVDTFIVFRSLTPLLVAIADTVFRSQPLPSRLTFLSLVVILAGAVGYVATDSSFTLTAYSWALAYLVTITTEMVYIKHMVSNIKLNIWGLVLYNNLLSLMIAPVFWFLTGEFTEVFAALSENRGNLFEPYAFSSVAASCVFGFLISYFGFAARNAISATAFTVTGVVNKFLTVVINVLIWDKHATPVGLVCLLFTICGGVGYQQSVKLDKPIEKVSEKDSEKGEEDEELTQLVPGKLASVV	7 (1) μM	3.24 µM/min	4 s⁻¹	–	–	–	–	–	–
GONST1 (Arabidopsis thaliana) (protein, yeast microsomal protein reconstituted into liposomes) MKLYEHDGVDLEDGKTVKSGGDKPIPRKIHNRALLSGLAYCISSCSMILVNKFVLSSYNFNAGIFLMLYQNFVSVIIVVGLSLMGLITTEPLTLRLMKVWFPVNVIFVGMLITSMFSLKYINVAMVTVLKNVTNVITAVGEMYLFNKQHDNRVWAALFLMIISAVSGGITDLSFNAVGYAWQIANCFLTASYSLTLRKTMDTAKQVTQSGNLNEFSMVLLNNTLSLPLGLLLSYFFNEMDYLYQTPLLRLPSFWMVMTLSGLLGLAISFTSMWFLHQTGATTYSLVGSLNKIPLSIAGIVLFNVPTSLQNSASILFGLVAGVVFARAKMREKS	–	–	–	76 (5) μM	0.84 µM/min	0.7 s⁻¹	17 (3) μM	1.44 µM/min	1.2 s⁻¹

Reference: article PMC4935801, “The Arabidopsis Golgi-localized GDP-L-fucose transporter is required for plant development” (Nature Communications, 2016)
